The test has as its target T1, trispecific antibody LMOAME.
T1 construct: Trispecific single-chain tandem scFv, monomer of 83.8 kDa without Fc; also called CD19×CD3×CD28 antibody; LMOAME DP
Kind of test: ELISA, antigen-Fc coated on the plate, detection with HRP-protein L. (ELISA stands for enzyme-linked immunosorbent assay.)

Experimental: Recombinant human CD19 antigen (CD19 (C-Fc), Novoprotein, Cat #: C572), and CD28 antigen (CD28 (C-Fc), Novoprotein, Cat #: C81) were diluted to 2 μg/mL with a protein coating solution, and plates were coated with the dilutions of 100 μL per well overnight at 2-8° C. The plates were washed the next day and blocked with a blocking solution of 1% Casein+3% BSA (PBS+2% BSA (V/W)).
The diluted antibodies were added to the 96-well flat bottom plates coated with antigens respectively and incubated for 1 h at 37° C.

B1: Recombinant human CD19 antigen (CD19 (C-Fc), Novoprotein, Cat #: C572) (Fc fusion, UniProt P15391 20-291, looked up)
chain: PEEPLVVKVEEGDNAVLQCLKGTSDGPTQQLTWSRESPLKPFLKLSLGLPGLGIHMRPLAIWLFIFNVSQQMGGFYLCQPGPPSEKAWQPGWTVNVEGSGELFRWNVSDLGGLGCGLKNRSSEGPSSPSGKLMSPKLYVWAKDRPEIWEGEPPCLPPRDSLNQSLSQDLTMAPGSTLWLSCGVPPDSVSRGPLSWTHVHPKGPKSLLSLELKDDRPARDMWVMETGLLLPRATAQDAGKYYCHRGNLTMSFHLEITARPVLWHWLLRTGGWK
notes: Bought C-terminal Fc fusion; also called rhCD19; hCD19 antigen; not shown: C-terminal Fc tag of the bought protein
Regarding B1, the binding result is on record as “binds”.

Values taken from patent US20260184785A1 (CYTOCARES SHANGHAI, published 2026).
